# Measurements from the DeepSol protein solubility set.
# Experiment: soluble on expression in E. coli; label from the status in PepcDB or PDB records
row,Sequence,soluble on expression in E. coli
1,EAISLSFEQRGQRRAILRDLSLGLAKGESLVVLGPSGCGKSTLLNILAGFQKPDQGRVQIDGRTLEGPGGERGVVFQDDALMPWLNALDNVALGLRIRGLGKAERTARARQVLQLVGLQEYAEQSVAQLSGGQRQRLGLARALAVEPDFLLLDEPFGALDALTRERMQVLLLDLWKQTGKGLFLITHSVDEALFLATDLVVMDGPPARIVKRLPVDFARRYAAGETVRSIKADPEFGRLRQALLDEFLDVAEA,not soluble
2,MLTYYRDLFSLKLASCLDMEYSSFENATKINFREFFPEARSLTFSKKPDAKQGMQGGGMLKMLIDEKETIFYIKAFTGLNEENAIKLNELVVCKILHRMGKGPNYWFYINNHFSKKAVYMASKEVVGCG,not soluble
3,MAHHHHHHMERFRSEDVAEGAFTLNLDECGASLIELHAPLNGLAFMMQDAVVAQLAMGSTLAGSDAAKAPQDDHDGTTVNFRTLSTSAAGAIDALLSEMSARRVHFVSGVVTDAMLDVEGVTIIDPLPLEPRLNRFQRNMIRLSLTLEQQFFLLAEYLGNTSGGCAHGVIGSGEAAALAVDVWRVAGFCDALVDHLWWRGRCVCGGPFSWRCRWDCAARGVARRCARACRVLGVFTPAR,not soluble
4,ASLDSEVELLPHTSFAESLGPWSLYGTSEPVFADGRMCVDLPGGQGNPWDAGLVYNGVPVGEGESYVLSFTASATPDMPVRVLVGEGGGAYRTAFEQGSAPLTGEPATREYAFTSNLTFPPDGDAPGQVAFHLGKAGAYEFCISQVSLTTSAT,soluble
5,MAIQGSRTEGLGGYTFDDLAVVMGTYNEEEAIGTVLDDIATVTDGRAEVICVDGSSDRTPEIARDHGATVIEQEPQGYGVAVREAVLTPDRPVVVTTDCDDTYPMERLPDFLAEINDGADVVSGDRLYYGAEQMPAMNKLGNELFALLASVLMGKRVHDTTTGMRAYRREVLQKIVWTENTGLSAELLMRPLMRGYDVRERPIEYDERKGETKLDPFSGGAAIAKSIVRVALEERFRLEHHHHHH,soluble
6,MGSDKIHHHHHHMQSLSSHYHQLLGLPSNWEVENVNLSMSSRQVEIRLAFTGKQGECPICGQSCLIYDHAAEQRWRHLDTMQFETILVARLPRCQCKEHGVKTVQAPWAARHSRFTLLFESFAVELLLHCANIKAASRLLRLNWHTVNQIMRRAVQRGLVRRKTETVEYLGIDEKSFKAGQHDVTTLTDLGERRVLEVVEHRTTEATKELLASLNDSQQAGVKAVSVDMWKPFIHAVQELLPKADLVHDRFHISKYLNEAVDLVRRKECRQLDKAGDKRLIGSTYVWLRNPENMGEQQQAELGKLMDAEFRTGKAWSLKNMFRAFWQLGCADAGTFFFEYWSKRIDEVGLVPLTKVKELLQRHFGNVLTWFKHPITNAVSEGLNSKIQIVKASARGFHRFESYRIRILFYCGKLNMAIGS,not soluble
7,MGSDKIHHHHHHMKKVLGLVVSNRKLGNSEILVKEIINNIPEECNRELIRLTDLEIKPCKACYRCLQPNNACPVRDDFNFVIEKIREADALIIGVPVYFLGPHGYYKMLTDRLLGSQNYSQDTQGKPCIIVMPYGSEGWEGYSKIACMVMPKLLRMKLVDCWQIHASLPGESLLNPENISYARALGRELFNGREYHAESKECPICGSDLFRLINENQVECPICGSRGILKNNFSPDFSDSDYRRFSDHEMDEHFKGWLLEMKDRFSAEKNHLKELQKGYRNQNWWIKPCRLDEC,not soluble
8,MSLAAVPAPDPGPDAGAIWHYGDPLGEQRAGQADAVLVDRSHRAVLTLDGGDRQTWLHSISTQHVSDLPEGASTQNLSLDGQGRVEDHWIQTELGGTTYLDTEPWRGEPLLAYLRKMVFWSMVTPRAADMAVLSLLGPRLAEERVLDALGLDVLPAEWLAVPLAGGGIVRRMPDGLAGQIELDVVVKRGDRADWQRRLTQAGVRPAGIWAYEAHRVAHRVPARRPRLGVDTDERTIPHEVGWIGGPGAGAVHLNKGCYRGQETVARVHNLGRPPRMLVLLHLDESVQRPSTGDAVLAGGRTVGRLGTVVEHVELGPVALALLKRGLPGDTALVTGPEAEVAAVIDVDSLPPADDVGAGRRAVERLRGGIREGHHHHHH,soluble
9,MSRYLITFDMDTNCLKDNYHGNNYTNAYSDIKTILARHGFENIQGSVYLGREGISEAHGTIAIQELTARFDWFYSCISNIKFYRLESDLNAQFIADGVYQAKQAFLQRVEQLRISLTEAGLSDEQINQVLEKQKFELESPNLKLN,not soluble
10,MNLGLCMADPDFGVYHHSSREESERLRYMARIMFTEAFGKIGIDQDADMNIIDVGCGLGFLTILCADYFKNSRITAIDTFSMGSLKDNSRERLIENLRLADVLDRVTVVEADITKPFNIEDKFDLAVSNLVFHNTGRQRFSVYRNVWNVLKCGSYFINADGFIRKNVASIFVDPFRADMSKISSMYEPEFAMEPKDQKRNAVWRYILVGLRSKCSDV,not soluble
11,MAHHHHHHMCNGKFAFLFSDFGNHVIEESYYKVNEGQRKGETGANKAAMQIQYCKLSHFLKVPFENFDKKTNKIIYPMFALILFEQNKQLNKNDKSIDEQEFHTFCDQFSLSKWKESLVEISKTYRVGFSPTCSIMGGVTSQEIRKFVSKQHESIPNFCVFDMNQNVVCTSMIS,not soluble
12,MAYSKIRQPKLSDVIEQQLEFLILEGTLRPGEKLPPERELAKQFDVSRPSLREAIQRLEAKGLLLRRQGGGTFVQSSLWQSFSDPLVELLSDHPESQYDLLETRHALEGIAAYYAALRSTDEDKERIRELHHAIELAQQSGDLDAESNAVLQYQIAVTEAAHNVVLLHLLRCMEPMLAQNVRQNFELLYSRREMLPLVSSHRTRIFEAIMAGKPEEAREASHRHLAFIEEILLDRSREESRRERSLRRLEQRKN,soluble
13,MEGGGAKDGSAAAAQTRGSGDDGSHKPLPPCCLKAKAAAAESEAKCHATVVSGWFTEPRSHSGKTSKVQYFNNPMWPGEAHSLKVENILYQGKSPYQEILVFESSTYGNVLVLDGIVQLTEKDECAYQEMVTHLPLCSIPSPKSVLVVGGGDGGVLREIARHASVENIDICEIDQLVIDVCKDFFPQLSVGFKDPRVQLHVGDAVDFLRNAPEGKYDAIIVDSSDPIGPAQELVEKPFFQTIARALKPGGVLCNQAESMWLHTHLIQDMLSICRETFKGAVHYAWTSVPTYPSGVIGFLLCAKEGPAVNFLSPVNPIEKLEGAMEAGREIRFYNSEVHRAAFVLPTFVRRELESHNTCAEKDKSETKPVAKPKKMKIMPNSAIPTAS,not soluble
14,MGSDKIHHHHHHMKQIIDIENWERKENFNFFRHFQNPQLSITSEVECGGARQRAKAAGQSFFLHYLYAVLRAANEIPEFRYRIDPDGRVVLYDTIDMLSPIKIKENGKFFTTRFPYHNDFDTFYQEARLIIDAIPEDGDPYAAENEEVADGDYGLILLSATPDLYFTSITGTQEKRSGNNYPLLNAGKAIIREGRLVMPIAMTIHHGFIDGHHLSLFYKKVEDFLK,not soluble
15,MAHHHHHHMTESRWITEALVQFSASPIWLTPIDNFVDDNCCIFSNESEMQLEYTVAHNKFKKLIDSLLTCFLMELGVSMETAVEALQSSLAVSVQTSEGLSEQQAAKKLLKQIFNADNFSHFHTMMVKRNLELDILANAALSSDGVCGNGGAALSTEEVEKETRARARVQRAIDVNGDVSEDDALRRAIEVSLQDGTAQQQVQAYRKACIQEDANLQLTAVEHQANSEKAQLEAVLQTQSAQNLPEGEHFRQNHVEPINKQKESQLQPIRAHAMSGKGQKGCDEAEPQKANFNSPESPCPLPALQVPAAASAPVAAPVSVPALPSIGQRQAALPSIPSTITASVLKSAPSAPAHQAHGTAVSATPAPTPIPTKEELEKRAQYMREQREKLLARNRASRQEQLNTFLQNNSSSTTTSSSAALAATGAAQSVTVEIARRLRGDLIGEARKSSG,soluble
16,MGSDKIHHHHHHMAELNKTKVRKELRTERPSIYSFELDEIKQWLTDNGEKPFRAAQIFEWLYEKRVSSFEDMTNLSKDLREKLNTRFVLTTLKTAVKQTSQDGTMKFLFELHDGYTIETVLMRHEYGNSVCVTTQVGCRIGCTFCASTLGGLKRNLEAGEIVAQVVKVQKALDETDERVSSVVIMGIGEPFDNFNEMLAFLKIINHDKGLNIGARHITVSTSGIIPKIYEFADQQMQINFAISLHAPNTEIRSRLMPINRAYKLPDLMEAVKYYINKTGRRISFEYGLFGGVNDQVEHAEELADLLEGVKCHVNLIPVNYVPERDYVRTPRDQIFAFEKTLKSRGVNVTIRREQGHDIDAACGQLRAKERQDETR,not soluble
